Publication PMC6557205, “Functional interplay between YY1 and CARM1 promotes oral carcinogenesis”

Biological target: His-YY1 full length (UniProt P25490 1-414)
Experiment: EMSA; unlabelled probe competes; anti-His supershift; EMSA buffer 10% glycerol, 75 mM KCl, 10 mM HEPES (pH not stated), 5 mM MgCl2; 30 C, 30 min (Fig 7F: 15 min methylation + 15 min binding); 5% native PAGE in 0.5X TBE at 4 C
Conditions: protein: recombinant; tags: His (pET28b); label: 32P 5' end label on one strand; blunt

Chain of His-YY1 full length (P25490 whole entry): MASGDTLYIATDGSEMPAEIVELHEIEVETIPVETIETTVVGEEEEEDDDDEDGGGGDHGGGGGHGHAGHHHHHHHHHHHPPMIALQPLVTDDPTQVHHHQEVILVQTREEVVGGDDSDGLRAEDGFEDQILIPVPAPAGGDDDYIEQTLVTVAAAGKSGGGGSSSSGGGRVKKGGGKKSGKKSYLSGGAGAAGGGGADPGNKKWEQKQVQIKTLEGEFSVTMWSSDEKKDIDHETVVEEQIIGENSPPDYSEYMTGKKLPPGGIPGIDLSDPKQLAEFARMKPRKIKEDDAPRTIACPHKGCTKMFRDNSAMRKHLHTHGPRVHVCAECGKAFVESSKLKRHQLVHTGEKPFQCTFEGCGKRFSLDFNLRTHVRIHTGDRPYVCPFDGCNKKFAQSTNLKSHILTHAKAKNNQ

B1: CARM1proYY1_BS1 (dsDNA)
DNA 1: GGGACCTCTGGATCCCATGGTTGGATGGCTGGGGGGTGGA
DNA 2: TCCACCCCCCAGCCATCCAACCATGGGATCCAGAGGTCCC
binding result: binds
